Results reported in the DeepSol protein solubility set.

Experiment: soluble on expression in E. coli; label from the status in PepcDB or PDB records

| Sequence | soluble on expression in E. coli |
| --- | --- |
| MSLGFHEVRFPASLSFGSVGGPERHTDVVTLANGHEERNTPWAHSRRRYDAGVAMRGLDDIETLIAFFEARQAQLHGFRWKDWSDYKSGPALAEPAYHDQIIAIGDDVTASFPLIKAYRSGEQIYRRPITKPVAGTVRIGLSGDEQQEGVHYEVDTTTGIITFAHPPNEGLEITAGFEFDVPVRFDTDRIQTSVASFQAGDMPNVPVVEIRVEGHHHHHH | soluble |
| MSLGGNGREKDHASELRSIFSLKKIADAVNGYEEAKYVVFGIPFDNTSSYRRGSKYAPDSIRGAYVNLESYEYSYGIDLLASGMADLGDMEESEDVEYVIDTVESVVSAVMSDGKIPIMLGGEHSITVGAVRALPKDVDLVIVDAHSDFRSSYMGNKYNHACVTRRALDLLGEGRITSIGIRSVSREEFEDPDFRKVSFISSFDVKKNGIDKYIEEVDRKSRRVYISVDMDGIDPAYAPAVGTPEPFGLADTDVRRLIERLSYKAVGFDIVEFSPLYDNGNTSMLAAKLLQVFIASREKYYKEHIEGHHHHHH | soluble |
| MSLGIIRSILDTDLYKFTTGYAYAKLFPRAYGEFRFIDRNRQGFTEEFAELVRGEIRAMAALSLTRDEKEFLQRELPYLPPIYIDFLDGFRFDPEEVTVSIDAQGHLDIRAQGLLYRVTLWETPILAVISELYYRFIGAKPDWKQVEEVTRSKGELMREHRTTFSIFGMRRRFSLEVEDRVTDILKQYAGESLFGTSNVHLAHKHGLRVSGTHPHEWIQFHGAIYGYKMANYVAMEDWINVYDGDLGTVLTDTYTTDVFMRNFSKKHAMLFTSLRHDSGDPEIFIEKAVRRYEELRVDPKIKYIIFSDSLTPQRAIEIQKLCAGRIKASFGIGTNLTNDVGGGVEPLNIVMKLWKCKMTAKDDWHYCVKLSDVDGKHTGEPEEILLAMNTLGIKPKEGHHHHHH | soluble |
| MSLGILEQLENPKFKATKSEKTLIEYIKSDLDNIIYKSISIIAKESGVGEATITRFTKKLGFNGFQDFKVTLAKEISNKKNTSIINLHVHRDESVTETANKMLKSSINILEQTVKQIDLDLMCKCRDLIMNAKRVYFIGIGYSGIAATDINYKFMRIGFTTVPVTDSHTMVIMSSITNDDDVIVAISNSGTTKEVIKTVKQAKENGTKIITLTEDSDNPLRKLSDYELTYTSAETIFETGSISSKIPQIFLLDLLYTEVIKEMFSEAVEKKIKTTSAILNEGHHHHHH | soluble |
| MSLGIPKHDFYLYQSQWVSVKKKPMVHLLPHWNWENKELASKVADSEGKIPVRAYSNASSVELFLNGKSLGLKTFNKKQTSDGRTYQEGANANELYLEWKVAYQPGTLEAIARDESGKEIARDKITTAGKPAAVRLIKEDHAIAADGKDLTYIYYEIVDSQGNVVPTANNLVRFQLHGQGQLVGVDNGEQASRERYKAQADGSWIRKAFNGKGVAIVKSTEQAGKFTLTAHSDLLKSNQVTVFTGKKEGQEKTVLGTEVPKVQTIIGEAPEMPTTVPFVYSDGSRAERPVTWSSEGHHHHHH | soluble |
| MSLGIPPNEAKTLGTYVPGDITLVDSYGNEFQLKNLKGKPIILSPIYTHCRAACPLITKSLLKVIPKLGTPGKDFWVITFTFDPKDTLEDIKRFQKEYGIDGKGWKVVKAKTSEDLFKLLDAIDFRFMTAGNDFIHPNVVVVLSPELQIKDYIYGVNYNYLEFVNALRLARGEGHHHHHH | soluble |
| MSLGIRSGNNNGGFTNLTSQAPQTTQMFQSQSQLQPQPQPQPQQQQQHLQFNGSSDASSLRFGNSLSNTVNANNYSSNIGNNSINNNNIKNGTNNISQHGQGNNPSWVNNPKKRFTPHTVIRRKTTKQNSSSDINQNDDSSSMNATMRNFSKQNQDSKHNERNKSAANNDISSLLSNFNDIPPSVTLQDWQREDEFGSIPSLTTQFVTDKYTAKKTNRSAYDSKNTPNVFDKDSYVRIANIEQNHLDNNYNTAETNNKVHETSSKSSSLSAIIVFGYPESISNELIEHFSHFGHIMEDFQVLRLGRGINPNTFRIFHNHDTGCDENDSTVNKSITLKGRNNESNNKKYPIFTGESWVKLTYNSPSSALRALQENGTIFRGSLIGCIPYSKNAVEQLAGCKIDNVDDIGEFNVSMYQNSSTSSTSNTPSPPNVIITDGTLLREDDNTPAGHAGNPTNISSPIVANSPNKRLDVIDGKLPFMQNAGEGHHHHHH | soluble |
| MSLGIVIYGTRIIYPAEHKEVMVQLMNQGNRSSLMQAWIDDGDTSLPPEKIQVPFMLTPPVAKIGANSGQQVKIKIMPNKLPTNKESIFYLNVLDIPPNSPEQEGKNALKFAMQNRIKLFYRPAGIAPVNKVTFKKLLVNRSGNGLVIKNDSANWVTISDVKANNVKVNYETIMIAPLESQSVNVKSNNANNWHLTIIDDHGNYISDKEGHHHHHH | soluble |
| MSLGLKIEEARVIVCCPGRNFVTLKIITNEGIYGLGDATLNGRELSVVSYLEDHVIPCLIGRDPHQIEDIWQFLYRGAYWRRGPITMSAIAAVDTALWDIKAKAAGLPLYQMLGGKSRTGVMVYGHANGRDIEETVEEVGRYIEIGYQAVRAQCGIPGLPSTYGVSNDKMFYEPADADLPSENIWSTSRYLDHVPKLFEKLRQVHGWDVHLLHDVHHRLTPIEAARLGQSLEPMRLFWLEDIVPAENQEGFRIIRNHTTTPLAVGEVFNTIWDCKNLIEEQLFDYIRSTVVHAGGITHLRRIADLAGLYHVKTGCHGATDLSPVCMGAALNFDLWVPNFGIQEYMRHAEITNEVFPHHYNFSNGFLHPGESPGHGVDLDEKLAAKYPYQRAYLPVNRLEDGTMWNWEGHHHHHH | not soluble |
| MSLGLNILKTLRSHRVSEGVSNSDTHYELTSALIKSLRGSDIDASIYYLARLIQGGEEPAFLARRMVIFASEDIGNANPNALNLATNVMLAVSKIGYPEARIILAQCAVYLASSPKSNSSYKAINDAIEFVENRPALPVPKYLINTDKAKSEYLYPHDFGGWVEQKYMSTQVKFYKSNAIGFEKTLDEWITKLKESYNEKEGHHHHHH | soluble |
| MSLGNAFIALDFETANGKRTSICSVGMVKVVNNEIVESFYTLVNPFDYFSQTNIEVHGITPEDVIDAPSFEYVFPYMMQFIDKLPVVAHNAAFDMNVLHQSLKQLNIETPSMIYFCSYQLAKRTIDAYRYGLKHLMKHYKLDFHGHHDALNDAKACAMITFRLLKHYDNLQSMLQIYGKNLKEGHHHHHH | not soluble |
| MSLGNDRWRAEFPLERIGTYEFRVEAWRDVFATLHADLEKKRAANTVLPVDVQEAVAAVQAAQARSDGALAERLQTVLTRIGAQSEPLQQLAIVLEPDTAQAMALADDKPFRSEYPVTFRVESERRAAHFSSWYELFPRSQSGDASRHGTFDDVIKRLPHIRAMNFDVLYMPPIHPIGLNNRKGRNNSVTAVEGEPGSPYAIGATDGGHTEVHAELGGLEGFRRLIEAARAQGLEVALDFAIQCAPDHPWLKEHKDWFTWRADGSIPYAENPPKKYQDIVNVDFYASGAVPDLWNTLRDAVLFWVNEGVTLFRVDNPHTKPFPFWEWLIADVRGRRPDVVFLSEAFTRPKMMYRLAKCGFSQSYTYFTWRNHKHELQAYVEELNDGVPRECFRPHFFVNTPDINPLFLQTSGRNGHLIRAALATTLSGLWGMYQGFELCEATPLAPGKEEYLDSEKFQLRAWPERVPGDIVEEITRFNQLRRMHPELQSHLGTRFYQAHNDQVLYYGKFLDAGYLSRSRSMVLVAINLDPHAGQDADIEIPLWELGLPDHASVAVEDLWDGHRFAWHGKYQHIRLEATRPFALWRIRAGEGHHHHHH | not soluble |
| MSLGNSFRQGANAYFDYVNTQGGIYGRALELLTYDDKYEPKLTESNVRHLIDKEGVFALMGTIGTPTAMAAIPVALEEQIPFLMPLSGARFLREPFNRLIFNLRPSYFEEIEAISSYLTEERGFKRIAIFYQNDSFGIEGLEGLTQSLDKRGLKIVAEGIYPRNTLSVSDAVYAIHPKSPEAIVMVGTYEASALFIQRYKELNPASPPLFVNISFVAATALAEALQGNMRQVLVSNVTPSPWDISNPLVREYHRLYVESMGHPPCFLSFEGFLSAKIIVEALHKTGPILSHKRFIKAMENLSPDFLSDLKLRFSATNHQAFEQVFITGYENGRFVTLKSYEGHHHHHH | not soluble |
| MSLGQDEALEKALDMIRNADRIVIGGGAGLSACGGLNYMSLEVLKKEFPALARRGYHTLWEALWDDRRTKQQKIGMMAAEVLWACYDFPVIRAYQDLLRMVEDKDYFVLTSNIDRQFHKAGFEEERIFEPQCSASDLQCQTPCCRDIWDGESVWRKIAANMDRETYACREEDIPRCDRCHAPAVQNMRGIKSFIPDKVMWNRIEFEQYIKEASDLRTVFLELGAGFNSPGVIRHPFQRLAYRYPKAALIRMNQEFPKVPEKIKDRSVEIAGDIGEALAQMRRLYEREGHHHHHH | soluble |
| MSLGRYCTDTEWTWFIPGKSPIKTDTIFREVAINGKTGLRTCHIDENTRFEVYEFWPSDLLRIFRRAGIQRHTPPFFEPGCALSGNSGISPQITSPQAGVSYIVHANTQSNKIIPLTAVTDAGIAHLYWFINESFVAETKSDEPYLWQAKPGKYVVRVVDDRGLSDARDITIQMVSEGHHHHHH | soluble |
| MSLGSEGTSAKISISAIQVNANNPIEDRLLIQRMRLNLPGGENKDFVISAVIDGHGGWQVAEYVQNNFIRIFQKELSQYMSSLVREGSANESNPISQINETDIIAGLFYSLKKTYYILDEELKSKLEVAYNLGFSKLASVGACTTVSIITEDAILTANSGDCLSVYCNENGIWLPLNEQLSAMNPQEQKRLEEIHKHEKDNLIQCKQILHEKFLMGLYTIPKYRGCYVKGILQPSRAIGDFRLKSMDFNYNWEKDLSTEKLLPTFSYVLKDKESEQSKKEQHRENEDLNEDEFPYSYDLINGNNSINMRRDSYRYFVKNPLSFPYVRSEPMLHLFFYNSLNKNLSSTDNTSVEKISPNEYSEGHHHHHH | soluble |
| MSLGSGVAEPEFPVHGDDRAAAFFDLDNTVMQGAAIFHFGRGLYKRKFFETRDLARFAWQQAWFRLAGFEDPEHMQDARDSALSIVKGHRVSELKSIGEEIYDEYMAERIWPGTRALAQAHLDAGQKVWLVTAAPVEIAQVIARRLGLTGALGTVAESIGGVYTGKLVGEPLHGPAKAEAVRALATAEALDLSRCAAYGDSHNDIPMLSLVGHPYAINPDSKLRKHARELEWRLRDYRTGRKAAKEGHHHHHH | soluble |
| MSLGSMGPAQFVGRQTLATTPMGDVEIGLQERNGQLEVDIIQARGLTAKPGSKTLPAAYIKAYLLENGICIAKKKTKVARKSLDPLYNQVLLFPESPQGKVLQVIVWGNYGRMERKQFMGVARVLLEELDLTTLAVGWYKLFPTSSMVDPATGPLLRQASQLSLESTVGPCGERSEGHHHHHH | soluble |
| MSLGTIIIVDDNKGVLTAVQLLLKNHFSKVITLSSPVSLSTVLREENPEVVLLDMNFTSGINNGNEGLFWLHEIKRQYRDLPVVLFTAYADIDLAVRGIKEGASDFVVKPWDNQKLLETLLNAASQAKDGKKKNRKKESSPVSAMYWGESSAMQQLRTLIEKVATTNANILITGENGTGKEMLAREIHALSPRSAESMISVDMGAITESLFESELFGHVKGSFTDAHADRTGKFEAADRSSLFLDEIGNLPFHLQAKLLTAIQQRSIVRVGSNQSIPVDIRLICATNRNLQEMVDKGLFREDLLYRINTIHVEIPPLRKRKEDIVPLAERFIARFCKQYDKASISLSPAACEKLTAHAWYGNIRELEHSIEKAVIISDGETIPAEMFQLVQKTENPETETSTLEDMEKAMIRKALDKCGGNLSAVAAQLGITRQTLYNKMKKFGLEGHHHHHH | soluble |
| MSLGTILHSELEKFYDPNLIVGNETADDAAVYDLGNGTAIISTTDFFMPIVDDPFDFGRIAATNAISDIFAMGGKPIMGIAILGFPTNVLPAEVAQKIVDGGRFACHQAGIALAGGHSIDSPEPIFGLAVTGVIDTEKVKRNASAKSGCKLYMTKPLGIGILTTAEKKGKLKPEHQGLATAAMCQMNSIGSQFSQVDGVTAMTDVTGFGLLGHLIEICEGSNLSAVVFSDKIKTLDGVKDYIAQGCVPGGTGRNFDSYGHKVGILTEEQKAILCDPQTSGGLLVAVELNSVQTVIDIAKDAGIDLYEVGKLKPKSESDIVVEVKEGHHHHHH | soluble |
